From US20250255905A1 (University of Texas, published 2025)

Biological target: T1, recombinantly produced human BCMA (human, UniProt Q02223 1-54, limits assumed)
T1 construct: also called B-cell maturation antigen; TNFRSF17
T1 sequence (looked up): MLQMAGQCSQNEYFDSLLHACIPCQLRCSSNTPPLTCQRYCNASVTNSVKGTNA
Experiment: flow cytometry; CAR-transduced cord blood NK cells stained with recombinantly produced human BCMA to detect the CAR on the surface
Procedure: Following the incubation, the cells were transferred to a v-bottom 96-well plate for cell staining. The cells, after pelleted by centrifugation and washed with flow buffer, were stained in 1:10 Fc block with fluorescently conjugated mouse anti-human CD3, mouse anti-human CD56, mouse anti-human NKG2D, and recombinantly produced human BCMA for 30 minutes on ice in the dark. The stained cells were washed, resuspended in Sytox Viability Dye and recorded on an MACSquant flow cytometer. Data were exported and analyzed using FlowJo v10.6.2. Live CD3-CD56⁺BCMA⁺ […] excluding the viability dye were quantified.

B1: BCMA-DAP10 CAR (other)
chain: QITLRESGGDVVQPGRSLRLSCAASGFTFSSYAIHWVRQAPGKGLEWVAVTWHDGSNKYYAESVMGRFTISRDNSKNTLYLHMNSLRAEDTGVYYCARAKFGEPQYFQHWGQGTLVTVSSGGGGSGGGGSGGGGSDIVMTQSPSFLSASVGDRVTITCRASQGINNYLAWYQQKPGIAPKLLIYAASTLQSGVPSRFGGSGSGTEFTLTISSLQPEDFATYYCQQLKSYPFTFGPGTKVEIKRAAAIEVMYPPPYLDNEKSNGTIIHVKGKHLCPSPLFPGPSKPKDPKFWVLVVVGGVLACYSLLVTVAFIIFWVLCARPRRSPAQEDGKVYINMPGRGRVKFSRSADAPAYQQGQNQLYNELNLGRREEYDVLDKRRGRDPEMGGKPRRKNPQEGLYNELQKDKMAEAYSEIGMKGERRRGKGHDGLYQGLSTATKDTYDALHMQALPPR
notes: It leaves out the signal peptide, E2A and IL-15; E2A residues left at the C-terminus after cleavage are not described; also called BCMA CAR; BCMA targeting CAR
  binding result: binds
